Laboratory results taken from CN117946265A (HISUN BIO PHARMACEUTICAL CO LTD; ZHEJIANG BORUI BIOLOGICAL …, dated 2024).
Substitutions are numbered along the chain they refer to. “And” between values parts separate entries of the source, which are not always exact repeats. Equal values may be shown once.

T1: 人CX3CL1胞外区蛋白 CX3CL1(Q25-Q341)-6xHis (human, UniProt P78423 25-341)
T1 sequence: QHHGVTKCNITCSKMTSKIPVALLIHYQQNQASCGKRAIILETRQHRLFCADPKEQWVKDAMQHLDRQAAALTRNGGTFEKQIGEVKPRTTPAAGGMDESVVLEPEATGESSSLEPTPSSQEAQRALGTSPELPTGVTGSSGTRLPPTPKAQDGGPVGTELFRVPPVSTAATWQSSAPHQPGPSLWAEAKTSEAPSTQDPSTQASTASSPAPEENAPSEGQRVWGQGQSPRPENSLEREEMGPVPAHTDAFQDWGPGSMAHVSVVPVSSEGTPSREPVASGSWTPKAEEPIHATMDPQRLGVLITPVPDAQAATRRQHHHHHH

B1: C032 (antibody, human IgG2, kappa, V domains shown)
VH: EVQLQQSGPELVKPGASVKISCKASGYTFTDYYMNWVKQSHGKSLEWIGDINPNNGGTSYNQKFKGKATLTVDKSSSTAYMELRSLTSEDSAVYYCASSGNSYVDYWGQGTTLTVSS
VL: DIVMTQSHKFMSTSVGDRVSITCKASQDVSTAVAWYQQKPGQSPKLLIYWASTRHTGVPDRFTGSGSGTDYTLTISSVQAEDLALYYCQQHYSSPYTFGGGTKLEIKR
notes: Human-mouse chimeric antibody of mAb032 with human IgG2 constant region, expressed in CHOK1; also called 嵌合抗体C032
B2: mAb022 (antibody, V domains shown)
VH: B1 VH with S59N, Y94F
VL: DIVMTQSHKFMSTSVGDRVNITCKASQDVSTAVAWYQQKPGQSPKLLIYWASTRHTGVPDRFTGSGSGTDYTLTISSVQAEDLALYYCQQHYSSPYTFGGGTKLEIK
notes: Murine monoclonal antibody purified from hybridoma supernatant; also called 15F7B2
B3: C032NA (antibody, human IgG2, kappa, V domains shown)
VH: B1 VH with G56A
VL: B1 VL
notes: Chimeric IgG2 mutant of C032 removing the NG hot spot of HCDR2 (NG to NA)
B4: C032QG (antibody, human IgG2, kappa, V domains shown)
VH: B1 VH with N55Q
VL: B1 VL
notes: Chimeric IgG2 mutant of C032 removing the NG hot spot of HCDR2 (NG to QG)
B5: mAb032 (antibody, V domains shown)
VH: B1 VH
VL: B2 VL with N20S
notes: Murine monoclonal antibody purified from hybridoma supernatant; also called 18H6F1
B6: C022 (antibody, human IgG2, kappa, V domains shown)
VH: B1 VH with S59N, Y94F
VL: B1 VL with S20N
notes: Human-mouse chimeric antibody of mAb022 with human IgG2 constant region, expressed in CHOK1; also called 嵌合抗体C022
B7: Tab#1 (antibody, human IgG2, kappa, V domains shown)
VH: QVQLVQSGAEVKKPGASVKVSCKASGYTFTNYYIHWVKQAPGQGLEWIGWIYPGDGSPKFNERFKGRTTLTADKSTNTAYMLLSSLRSEDTAVYFCATGPTDGDYFDYWGQGTTVTVSS
VL: DIQMTQSPSSLSASVGDRVTITCRASGNIHNFLAWYQQKPGKAPKLLIYNEKTLADGVPSRFSGSGSGTDYTLTISSLQPEDFATYFCQQFWSTPYTFGGGTKVEIKR
notes: also called Quetmolimab; CX3CL1阳性对照抗体
B8: HumAb032-4 (antibody, human IgG2, kappa, V domains shown)
VH: EVQLVQSGAEVKKPGATVKISCKASGYTFTDYYMNWVQQAPGKSLEWMGDINPNQGGTSYNQKFKGRVTLTVDKSTSTAYMELSSLRSEDTAVYYCASSGNSYVDYWGQGTTVTVSS
VL: DIQMTQSPSSLSASVGDRVTITCKASQDVSTAVAWYQQKPGKAPKLLLYWASTRHTGVPSRFSGSGSGTDYTLTISSLQPEDFATYYCQQHYSSPYTFGGGTKVEIKR
notes: Full-length humanized IgG2/kappa antibody
B9: HumAb022-4 (antibody, human IgG2, kappa, V domains shown)
VH: B8 VH with S59N
VL: B8 VL
notes: as for B8
B10: mAb017 (antibody, V domains shown)
VH: QIQLVQSGPELKKPGETVKISCKASVYTFTEYAMHWVKQAPGKGFKWMGWINTNSGEPTYADDFKGRFAFSLETSASTAYLQINNLKNEDTATYFCGRGRVVGSFDYWGQGTTLTVSS
VL: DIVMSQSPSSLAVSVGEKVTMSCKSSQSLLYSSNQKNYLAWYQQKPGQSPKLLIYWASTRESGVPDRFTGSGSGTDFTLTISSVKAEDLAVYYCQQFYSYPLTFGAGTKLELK
notes: Murine monoclonal antibody purified from hybridoma supernatant; also called 36C7-1G2

How the values were obtained:
[1] = target: T1, 人CX3CL1胞外区蛋白 CX3CL1(Q25-Q341)-6xHis; assay: cell-based or functional assay
[2] = target: T1, 人CX3CL1胞外区蛋白 CX3CL1(Q25-Q341)-6xHis; assay: cell-based or functional assay; remark: listed apart in the source
[3] = target: T1, 人CX3CL1胞外区蛋白 CX3CL1(Q25-Q341)-6xHis; assay: FACS competition: antibody blocks huCX3CL1-His binding to CHOK1-hCX3CR1 cells

Binder | 抑制cAMP活性 IC50 [1] | 抑制cAMP活性 MAX [1] | 抑制细胞迁移活性 IC50 [2] [nM] | IC50 [3]
B1 | 3.4 nM | 95.8 | 2.49 | 0.731 nM
B2 | 0.8 nM | 105 | 7.19 | 7.6 nM
B3 | 3.63 nM | 92.5 | 4 | 0.865 nM
B4 | 3.96 nM | 97 | 2.27 | 0.811 nM and 1.49 nM
B5 | 1.07 nM | 115 | 8.72 | 11.5 nM
B6 | 2.41 nM and 3.28 nM |  |  | 0.885 nM and 1.7 nM
B7 | 5.69 nM and 4.07 nM |  | 19 | 1.96 nM
B8 |  |  |  | 1.22 nM
B9 | 2.69 nM | 100 | 0.299 | 1.27 nM
B10 | 0.7 nM | 100 | 7.55 | 6.1 nM
